{"source": "patent US10500249B2", "about": "“Compositions and methods for preventing or treating diseases, conditions, or processes characterized by aberrant fibroblast proliferation and extracellular matrix deposition” (MOERAE MATRIX, INC., priority 2014, dated 2019)", "assay_in_all_cases": "Kinase Profiling Assay", "type_in_all_cases": "biochemical", "conditions_in_all_cases": "100 μM", "key": {"PAK6 (h)": {"biological_target": "T1, PAK6 (h) (Homo sapiens, UniProt Q9NQU5)", "T1 construct": "purchased Millipore", "T1 sequence (Q9NQU5 whole entry)": "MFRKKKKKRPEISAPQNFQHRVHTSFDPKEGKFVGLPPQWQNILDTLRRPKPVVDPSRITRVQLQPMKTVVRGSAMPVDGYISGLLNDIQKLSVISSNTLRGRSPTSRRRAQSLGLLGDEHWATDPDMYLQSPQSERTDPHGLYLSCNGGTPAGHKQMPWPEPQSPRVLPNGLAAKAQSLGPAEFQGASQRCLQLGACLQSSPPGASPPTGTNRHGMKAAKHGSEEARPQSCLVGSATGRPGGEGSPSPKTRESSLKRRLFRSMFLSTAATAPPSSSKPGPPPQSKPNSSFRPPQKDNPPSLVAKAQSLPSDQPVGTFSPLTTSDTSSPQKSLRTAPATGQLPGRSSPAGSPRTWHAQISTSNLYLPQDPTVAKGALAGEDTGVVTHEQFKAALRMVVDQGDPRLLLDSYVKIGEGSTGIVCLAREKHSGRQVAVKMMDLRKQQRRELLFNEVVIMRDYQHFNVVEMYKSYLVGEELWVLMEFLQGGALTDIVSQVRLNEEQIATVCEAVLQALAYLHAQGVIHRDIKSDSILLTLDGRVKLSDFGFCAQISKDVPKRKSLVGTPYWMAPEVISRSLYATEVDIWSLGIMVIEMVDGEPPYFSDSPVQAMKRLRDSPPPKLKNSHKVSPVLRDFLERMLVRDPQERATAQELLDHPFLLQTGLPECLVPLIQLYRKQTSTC", "summary_of_the_method": "(§1)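 Radiometric filter-binding format: cationic substrate takes up labeled phosphate from ATP unless the inhibitor peptide blocks the kinase. Substrate bound to an anionic filter, scintillation-counted, normalized to 100% activity control. Duplicates; part of a 266-kinase selectivity panel for MK2 peptides.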"}, "CK1γ1 (h)": {"biological_target": "T2, CK1γ1 (h) (Homo sapiens, UniProt Q9HCP0)", "T2 construct": "purchased Millipore", "T2 sequence (Q9HCP0 whole entry)": "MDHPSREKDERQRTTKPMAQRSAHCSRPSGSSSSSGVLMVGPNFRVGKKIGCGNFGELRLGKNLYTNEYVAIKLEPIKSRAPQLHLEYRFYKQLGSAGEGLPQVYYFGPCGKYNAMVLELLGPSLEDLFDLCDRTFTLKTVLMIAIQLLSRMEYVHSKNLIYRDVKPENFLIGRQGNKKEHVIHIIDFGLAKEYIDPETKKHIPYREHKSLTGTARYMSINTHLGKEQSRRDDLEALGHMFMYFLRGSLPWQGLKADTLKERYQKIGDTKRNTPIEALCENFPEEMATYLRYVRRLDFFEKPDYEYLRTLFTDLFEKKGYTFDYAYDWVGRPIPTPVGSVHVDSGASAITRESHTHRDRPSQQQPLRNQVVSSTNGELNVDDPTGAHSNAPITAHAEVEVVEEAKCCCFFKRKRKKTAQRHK", "summary_of_the_method": "as §1"}, "CLK2 (h)": {"biological_target": "T3, CLK2 (h) (Homo sapiens, UniProt P49760)", "T3 construct": "purchased Millipore", "T3 sequence (P49760 whole entry)": "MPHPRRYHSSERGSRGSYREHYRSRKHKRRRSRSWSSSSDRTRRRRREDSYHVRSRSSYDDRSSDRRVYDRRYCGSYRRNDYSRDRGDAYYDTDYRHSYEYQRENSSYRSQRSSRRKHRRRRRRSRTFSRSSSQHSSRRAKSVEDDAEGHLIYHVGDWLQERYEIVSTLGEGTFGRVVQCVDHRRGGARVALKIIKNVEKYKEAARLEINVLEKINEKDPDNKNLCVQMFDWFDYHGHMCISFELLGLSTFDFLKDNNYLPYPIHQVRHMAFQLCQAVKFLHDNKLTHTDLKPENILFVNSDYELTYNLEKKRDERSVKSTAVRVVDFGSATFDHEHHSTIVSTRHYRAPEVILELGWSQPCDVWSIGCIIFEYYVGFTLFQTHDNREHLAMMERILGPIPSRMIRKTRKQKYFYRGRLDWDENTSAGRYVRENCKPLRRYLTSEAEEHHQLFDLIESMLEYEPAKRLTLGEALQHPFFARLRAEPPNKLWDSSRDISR", "summary_of_the_method": "as §1"}, "c-RAF (h)": {"biological_target": "T4, c-RAF (h) (Homo sapiens, UniProt P04049)", "T4 construct": "purchased Millipore", "summary_of_the_method": "as §1"}, "CK1γ2 (h)": {"biological_target": "T5, CK1γ2 (h) (Homo sapiens, UniProt P78368)", "T5 construct": "purchased Millipore", "T5 sequence (P78368 whole entry)": "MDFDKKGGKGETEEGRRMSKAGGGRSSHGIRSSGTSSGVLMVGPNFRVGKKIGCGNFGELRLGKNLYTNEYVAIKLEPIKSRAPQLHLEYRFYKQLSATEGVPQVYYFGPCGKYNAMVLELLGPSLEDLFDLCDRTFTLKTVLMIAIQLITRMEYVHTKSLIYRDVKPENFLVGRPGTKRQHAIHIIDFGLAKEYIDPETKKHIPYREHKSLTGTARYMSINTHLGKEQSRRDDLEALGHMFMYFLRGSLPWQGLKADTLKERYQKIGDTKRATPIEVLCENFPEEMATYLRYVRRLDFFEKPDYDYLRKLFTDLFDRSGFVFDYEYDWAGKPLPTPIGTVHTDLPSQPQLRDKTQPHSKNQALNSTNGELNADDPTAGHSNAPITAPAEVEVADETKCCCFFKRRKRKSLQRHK", "summary_of_the_method": "as §1"}}, "data": [{"sequence": "KAFAKLAARLYRKALARQLGVAA [MMI-0400]", "values": [{"measurement": "% activity", "setting": "PAK6 (h)", "value": 100, "unit": "%"}]}, {"sequence": "YARAAARQARAKALNRQLGVA (Mammalian) [MMI-0200]", "values": [{"measurement": "% activity", "setting": "CK1γ1 (h)", "value": 98, "unit": "%"}, {"measurement": "% activity", "setting": "CLK2 (h)", "value": 97, "unit": "%"}]}, {"sequence": "HRRIKAWLKKIKALARQLGVAA (Mammalian) [MMI-0500]", "values": [{"measurement": "% activity", "setting": "c-RAF (h)", "value": 19, "unit": "%"}]}, {"sequence": "FAKLAARLYRKALARQLGVAA [MMI-0300]", "values": [{"measurement": "% activity", "setting": "CK1γ2 (h)", "value": 123, "unit": "%"}]}]}
